Here are results for 20 sequences from the DeepSol protein solubility set.

The nature of the series: soluble on expression in E. coli; label from the status in PepcDB or PDB records.
Turning to “GPMELAHREYQAGDFEAAERHCMQLWRQEPDNTGVLLLLSSIHFQCRRLDRSAHFSTLAIKQNPLLAEAYSNLGNVYKERGQLQEAIEHYRHALRLKPDFIDGYINLAAALVAAGDMEGAVQAYVSALQYNPDLYCVRSDLGNLLKALGRLEEAKACYLKAIETQPNFAVAWSNLGCVFNAQGEIWLAIHHFEKAVTLDPNFLDAYINLGNVLKEARIFDRAVAAYLRALSLSPNHAVVHGNLACVYYEQGLIDLAIDTYRRAIELQPHFPDAYCNLANALKEKGSVAEAEDCYNTALRLCPTHADSLNNLANIKREQGNIEEAVRLYRKALEVFPEFAAAHSNLASVLQQQGKLQEALMHYKEAIRISPTFADAYSNMGNTLKEMQD”, the “soluble on expression in E. coli” value is reported as “soluble”.

In the case of “GAMGSGDTQLFNRAVSMVEKNKDIRSLLQCDDGITGKERLKAYGELITNDKWTRNRPIVSTKKLDKEGRTHHYMRFHVESKKKIALVHLEAKESKQNYQPDFINMYVDVPGEKRYYLIKPKLHPVSN”, the “soluble on expression in E. coli” value is reported as “soluble”.

Turning to “MGSDKIHHHHHHYPEPVLNPESCTSIMVGKKASADGSVMTSHTCDSNYRTWMDIVPSASYDHDTTTTVYTGRMHTEYAEGTRGMIAKGTLPEARSTYQFLNTAYPCLNEKQLGIGETTITGRKALVNKKGMFMIEELQRIALQRCTTARDAIRLMGELIEKYGYGDWGECLTIADPKEVWHFEVFGEGPDKIGGVWAAIRIPDDHVGVSANIPRISKVDPSDKENCMASANVFEVAKRMGFWDGKKPFRFWEAYGGGNYSGELKSFSIREFFILNKLAPSLHLSYDAEELPISVKPEKPVDVTDVMALLSETYEGTEYDMTKNLKVAVKKKDSNETDTIISPVANPWMTTDMVNMLNGLRPDAVKRYRLVAVPQCSYSTVIQLRDWLPDAVGGVVWMAYDNPGQSPRIPIFCGTKDLPACFKVCGQHRYREDAAVWAFRRANKLATVRWGATKDRMKASIAHFTEKGQTELPFVESRYKEILTQQGEEAAKEYLTGYTADFAGATMLRWREMGDSFWTQFERGF”, the “soluble on expression in E. coli” value was “not soluble”. For “MESKLEQNVTAMMSSTGASGITVADSEGVRLHSAGKITDMANVGSLMIADAKNMFPKGTRNKKNSYPIVTLHSSDGSKTTKFLFENLKILNVLFKNQQISYYLLQKPEISGFSYKKSVFFSNFLSENLKIF”, the “soluble on expression in E. coli” value is “soluble”. The value for “MGSDKIHHHHHHMILSHFSTKVVTFFGSRFKAVRGVDLKRYRKELKLKQQELASKLGIERSLISKIESGKRVISKELEQKIINVLNLDGGHASVEAKIDFLRIRFKTLDVRTVIEKLLHMDMNWFTHESRGFYHYTETFSYSSIRIFRNPENVNMGIMLDLSGEGCRQLEEIFEEDNNRSWTEFFRSLYDDDIFGQGILVDTKITRIDIALDELIVKGQENFDLYVLKEKMEQGLVDTTFKNFDFSGGFVYENKKMVNKGLSLYFGSRQSPLYFNFYQKDYELARKESMSVEEAREKHEIKNRYEIRLSDEKAFLFVEYFLSSGESLDWLVKEIINQSLTVYDIEDDMKVYCKSWHDVVDKLEGLKLSVQGEKPSIEKTLRWLSNYLAPSLKMIKEIDNLLGTNELMERIDLAELKEKHEEIIEMVSVDAKDLLFTNRDNKSVRSYMEREFELEEMYPF” was “not soluble”. Take “MVTFASGDMLADDLGRFDYVVAMDSLIYYTDADIAAALDRLGARTRHSVVFTVAPRTPFLMAFWTMGKLFPRSDRSPVMIPHPFQPLNEATGGRLVKVGRVSRGFYISECLEFRPLEHHHHHH”: the “soluble on expression in E. coli” value is reported as “soluble”. In the case of “MGHHHHHHSHMRTYSDKNELKEEVLKSYKKYIAEFNDIPEKLKDLRIDEVDRTPAENLAYQVGWTTLILKWESDEQSGLEVKTPTETFKWNQLGELYQHFTETYASLTIKELTAQLNDNVDAIGNMIDSMSDEVLFKPHMRNWADSATKNAVWEVYKFIHINTVAPFGTFRTKIRKWKKVALK”, the “soluble on expression in E. coli” value was “soluble”. As for “MGHHHHHHSHMKNLVLKIISGSFPPVSLHYSYDLRSLVSQLFKRNPRDRPSVNSILEKGFIAKRIEKFLSPQLIAEEFCLKTFSKFGSQPIPAKRPASGQNSISVMPAQKITKPAAKYGIPLAYKKYGDKKLHEKKPLQKHKQAHQTPEKRVNTGEERRKISEEAARKRRLEFIEKEKKQKDQIISLMKAEQMKRQEKERLERINRAREQGWRNVLSAGGSGEVKAPFLGSGGTIAPSSFSSRGQYEHYHAIFDQMQQQRAEDNEAKWKREIYGRGLPERGILPGVRPGFPYGAAGHHHFPDADDIRKTLKRLKAVSKQANANRLDCDDP”, the “soluble on expression in E. coli” value was “not soluble”. “KMPISAGVTVERKLNDYLGIETGLLYSNLRSEGQHLHYLGIPLKANITLMDTKKIDLYATVGGVADKCIAGAPDNSFKEEPIQLAVTAGIGITYKINDRLAVFAEPG”: the “soluble on expression in E. coli” value was “not soluble”. Turning to “MGEPFGGPLMGRLVSLLPSATDLIFELGLGEQLLGVSHCCDHPGAASLPVLTRSIIGSDLPQAEIDRAVSEAVRAGRALYTVDGPLLDRLRPDLVVTQGVCEVCAVTPGTVAEAVRFLPGCLPAEQVLSLEGKTFAGILADLRALARAAGVRERGEALAAESERRWNAIRPVGVQVPEPPRVLTLEWVDPPFYGGHWVPEQVAQAGGKDVLGHAGRDSGRTSWEDVVQLDPDVIVVMCCGYGLSDNAEFARQVLSHPELRAVRAGQVWGVDANAHFSRPSLGVVRGAEVLAALLRGEESAGESVRVRAELEHHHHHH”, the “soluble on expression in E. coli” value is “not soluble”.

With “MAHHHHHHMNIEDDENKEKKETCLSYIKKINMSEIINDEAIGKRAEYLWNLALSAVYINVKLSMKYITLIKKITKNNLLFDNICCHYCNLIYIPFYNCKITHSPNQGKATYTCLLCKRKKKINLQHLSKHKNIYPLKHSDKHKPSTSNLSNVNFFLINEIDNYEIKKNNVPLNKDDTSNTENQLITKQENKNEDILKDVSCADMQKEEHIINQDNIINQDNIINQDNIINQDNIINQDNIINQDNIINQDNIINQDNIINQDNIINQDNIINKNDMYQNLSYLFRIDYGINKDDTQKGNEIYDKSIVNESEKCKSVHIENNKNDDNKNMNSESKNIKNERKRKSQNNNIAQNKNQGFPNVNMNDGFLNFNKSKKKKGKSILDIL”, the “soluble on expression in E. coli” value is listed as “not soluble”.

In the case of “MEQKYEEDIQKLQQEIEMLEAEQEETLRSIFVQHGDRLQQGVKSACEERGGGGAQQHTLSKLITEVRELEKDLRRQTEINGITLNECFVKTLHKSERKLIQQLRLAGHCGLLLFQVEFAVTEIQEDNVLHRRVTELNIVVDGVEFKDFSAFVSRVEDTKDLLLFFRTLRTFSERCEDRRQTFQHFQEKYPDVVNLPEGCRSEIMIIRSPQLPGISMTLFWKIHVSKEGVVKPLLDLLLKMPDQALELDTKKVMEKASDYFQSLLQLLGVEASIEGLIRTVCS”, the “soluble on expression in E. coli” value is “not soluble”.

Take “MINVDPPTGNFPASGGNSVHNIVSESDSRLAFKVKSSNNEHYRVRPVYGFIDPKGKTKLDINRIAGPPKVDKLVIQYAEVPADETDPQAPFKAGAQQGEVIVKITAE”: the “soluble on expression in E. coli” value was “not soluble”. “MKTRITELLKIDYPIFQGGMAWVADGDLAGAVSKAGGLGIIGGGNAPKEVVKANIDKIKSLTDKPFGVNIMLLSPFVEDIVDLVIEEGVKVVTTGAGNPSKYMERFHEAGIIVIPVVPSVALAKRMEKIGADAVIAEGMEAGGHIGKLTTMTLVRQVATAISIPVIAAGGIADGEGAAAGFMLGAEAVQVGTRFVVAKESNAHPNYKEKILKARDIDTTISAQHFGHAVRAIKNQLTRDFELAEKDAFKQEDPDLEIFEQMGAGALAKAVVHGDVDGGSVMAGQIAGLVSKEETAEEILKDLYYGAAKKIQEEASRWTGVVRNDLEHHHHHH”: the “soluble on expression in E. coli” value is “soluble”. The value for “FASNWVSHTHEVIQTIDTCLYDIVEIESRQRFYLIRGSSSQLMADIDDMKSTLQLNLDKLEQLTRDNPEQNKRIHRFIDLVKQRLNLLNQLVQLKGSGKLDTQEGYDLLNQSQDMSHQVKSLGQEIKSVELVLLSERNTG” was “not soluble”. The value for “MGSDKIHHHHHHMSSEEDYFDELEYDLADEVNEEKEDIQTKKLTTVNCQTEKFNPFEILPESIELFRTLALISPDRLSLSETAQILPKIVDLKRILQQQEIDFIKLLPFFNEIIPLIKSNIKLMHNFLISLYSRRFPELSSLIPSPLQYSKVISILENENYSKNESDELFFHLENKAKLTREQILVLTMSMKTSFKNKEPLDIKTRTQILEANSILENLWKLQEDIGQYIASKISIIAPNVCFLVGPEIAAQLIAHAGGVLEFSRIPSCNIASIGKNKHLSHELHTLESGVRQEGYLFASDMIQKFPVSVHKQMLRMLCAKVSLAARVDAGQKNGDRNTVLAHKWKAELSKKARKLSEAPSISETKALPIPEDQPKKKRAGRKFRKYKEKFRLSHVRQLQNRMEFGKQEQTVLDSYGEEVGLGMSNTSLQQAVGATSGSRRSAGNQAKLTKVMKHRISEANQQADEFLISLGHNTEQPNLSPEMVQMHKKQHTNPEEETNWFSGHG” was “not soluble”; that for “TVRVRLAPSPTGNLHIGTARTAVFNWLYARHRGGKFILRIEDTDRERSRPEYTENILEGLQWLGLTWDEGPYFQSDRLDLYRQAIQTLLDKGLAYYCYCTPEELEALRAEQKAKGQAPRYDNRHRHLTPEEQAAFEAAGRTPVIRFKIEDDRQIEWQDLVRGRVSWQGADLGGDMVIARAAPRGEIGYPLYNLVVVVDDIAMGITDVIRGEDHIGNTPKQILLYEALGATPPNFAHTPLILNSTGQKLSKRDGVTSISDFRAMGYLAPALANYMTLLGWSPPEGVGELFTLDLAAKHFSFERINKAGARFDWDKLNWLNRQYIQQLEPEEFLAELIPLWQGAGYAFDEERDRPWLFDLAQLLQPGLNTLREAIDQGAVFFIPSVTFDSEAMAQLGQPQSATILAYLLEHLPAEPALTVAMGQQLIQQAAKAAGVKKGATMRTLRAALTGAVHGPDLMAAWQILHQRGWDEPRLAAALKQAQTTSLEHHHHHH” was “soluble”; that for “MVYKNILVGLDGSSQADNAFKVACGLANALSADLHPIWIVNRDRGMDSSFGVNEDFYRDQYHQVQDKLVSYVEDAKKAGLKVTGEALVGNIKLVLANEYPKEHGIDLIVLGNTGLNTVEKLVVGSHTSYVIRNSACDVLVVK” was “not soluble”. For “MNALLSNPFKERLRKGEVQIGLWLSSTTAYMAEIAATSGYDWLLIDGEHAPNTIQDLYHQLQAVAPYASQPVIRPVEGSKPLIKQVLDIGAQTLLIPMVDTAEQARQVVSATRYPPYGERGVGASVARAARWGRIENYMAQVNDSLCLLVQVESKTALDNLDEILDVEGIDGVFIGPADLSASLGYPDNAGHPEVQRIIETSIRRIRAAGKAAGFLAVAPDMAQQCLAWGANFVAVGVDTMLYSDALDQRLAMFKSGKNGPRIKGSY”, the “soluble on expression in E. coli” value is “soluble”. For “MTNEEPKSPEKVERRRSTQEDSEKDKKRSRDDRKTEKRTHDRDRKRNRSRSRSRSRSPKRSRRDKKEEKQEQEEEDGEIRDTTPPAPEKPRQLTARELERQRIIEEELKSGKHDEHDDDPVWSMKKAQAEKKSRMCPYLDTIDRSVLDFDFEKQCSVSLSHQNVYACMVCGKYFQGRGTNTHAYTHALETDHHVFLNLQTLKFYCLPDNYEVIDPSLEDIKYVLKPTYTKEMIASIDKQSKMVRAYDDSTYFPGVVGLNNIKANDYCNAILQALSAVRPLRNWFLKESNYTSIKRPPGDKLTLLPQRFGELIRKLWNPRALRTHVSPHEMLQAVVVCSNKKFQFIKQNDAADFMLFLLTTLHSALNGTDKKPSIISKTFRGRMRQYSRRVIPAEDTDEEKYMKLRMPEYQEKVIESPFLYLTLDLPSAPLYRDVQLQNIIPQVPLSTLLEKFDGKTEKEYPTYNDNNIMKRFELLQLPDFLIITYKRFQKNQWFVEKNPTIVNFPIANVDFYDCLAKDARANHKYTTYDLVANVVHEGTFKDGNYRIQIVHEGSGKWFELEDLHVKDLLPQMIVLAESYIQIWRLNKEQTRDERAEGEPMQN” the value was “not soluble”.
